Data: patent US20180222961A1 (IMMATICS BIOTECHNOLOGIES, published 2018)

B1: GTYAHTVNR (peptide)
peptide: GTYAHTVNR
B2: GAYAHTVNR (peptide)
peptide: GAYAHTVNR
B3: SSSSATISK (peptide)
peptide: SSSSATISK
B4: RVFTSSIKTK (peptide)
peptide: RVFTSSIKTK
B5: VTDLISPRK (peptide)
peptide: VTDLISPRK
B6: GTNTVILEY (peptide)
peptide: GTNTVILEY
B7: AAFVPLLLK (peptide)
peptide: AAFVPLLLK
B8: VLADSVTTK (peptide)
peptide: VLADSVTTK
B9: RLKGDAWVYK (peptide)
peptide: RLKGDAWVYK
B10: RLFTSPIMTK (peptide)
peptide: RLFTSPIMTK
B11: VTADHSHVF (peptide)
peptide: VTADHSHVF
B12: SAAPPSYFR (peptide)
peptide: SAAPPSYFR
B13: RTEEVLLTFK (peptide)
peptide: RTEEVLLTFK
B14: HTFGLFYQR (peptide)
peptide: HTFGLFYQR
B15: RLQEWKALK (peptide)
peptide: RLQEWKALK
B16: QIHDHVNPK (peptide)
peptide: QIHDHVNPK
B17: ISYSGQFLVK (peptide)
peptide: ISYSGQFLVK
B18: AIKVIPTVFK (peptide)
peptide: AIKVIPTVFK
B19: AVFNPRFYRTY (peptide)
peptide: AVFNPRFYRTY
B20: SVLTSSLVK (peptide)
peptide: SVLTSSLVK
B21: KTFTIKRFLAK (peptide)
peptide: KTFTIKRFLAK
B22: RLFSWLVNR (peptide)
peptide: RLFSWLVNR
B23: RSRLNPLVQR (peptide)
peptide: RSRLNPLVQR
B24: KTLELRVAY (peptide)
peptide: KTLELRVAY
B25: MPNSAIPFSM (peptide)
peptide: MPNSAIPFSM
B26: SPVPVTSLF (peptide)
peptide: SPVPVTSLF
B27: TPLATTQRFTY (peptide)
peptide: TPLATTQRFTY
B28: AAASPLLLL (peptide)
peptide: AAASPLLLL
B29: SPSVSSNTY (peptide)
peptide: SPSVSSNTY
B30: TPLATTQRF (peptide)
peptide: TPLATTQRF
B31: FPFNPLDF (peptide)
peptide: FPFNPLDF
B32: SPSPVPTTL (peptide)
peptide: SPSPVPTTL
B33: RPRSPAGQVA (peptide)
peptide: RPRSPAGQVA
B34: IPTYGRTF (peptide)
peptide: IPTYGRTF
B35: NPDLRRNVL (peptide)
peptide: NPDLRRNVL
B36: TPSVVTEGF (peptide)
peptide: TPSVVTEGF
B37: PGGTRQSL (peptide)
peptide: PGGTRQSL
B38: IPRNPPPTLL (peptide)
peptide: IPRNPPPTLL
B39: SPAETSTNM (peptide)
peptide: SPAETSTNM
B40: NPIGDTGVKF (peptide)
peptide: NPIGDTGVKF
B41: SPGAQRTFFQL (peptide)
peptide: SPGAQRTFFQL
B42: MPLTTGSQGM (peptide)
peptide: MPLTTGSQGM
B43: SPTHVTQSL (peptide)
peptide: SPTHVTQSL
B44: RPRSPAGQVAAA (peptide)
peptide: RPRSPAGQVAAA
B45: LPEQTPLAF (peptide)
peptide: LPEQTPLAF
B46: VPTPVFPTM (peptide)
peptide: VPTPVFPTM
B47: SPAPLKLSRTPA (peptide)
peptide: SPAPLKLSRTPA
B48: SPMHDRWTF (peptide)
peptide: SPMHDRWTF
B49: NPSSTTTEF (peptide)
peptide: NPSSTTTEF
B50: NVLTSTPAF (peptide)
peptide: NVLTSTPAF
B51: LPWDTSTTLF (peptide)
peptide: LPWDTSTTLF
B52: LYVDGFTHW (peptide)
peptide: LYVDGFTHW
B53: MPSLSEAMTSF (peptide)
peptide: MPSLSEAMTSF
B54: GPFPLVYVL (peptide)
peptide: GPFPLVYVL
B55: APLKLSRTPA (peptide)
peptide: APLKLSRTPA
B56: SPNEFYFTV (peptide)
peptide: SPNEFYFTV
B57: KPIESTLVA (peptide)
peptide: KPIESTLVA
B58: SPLVTSHIM (peptide)
peptide: SPLVTSHIM
B59: SPSTIKLTM (peptide)
peptide: SPSTIKLTM
B60: TPTKETVSL (peptide)
peptide: TPTKETVSL
B61: TAKTPDATF (peptide)
peptide: TAKTPDATF
B62: SPALHIGSV (peptide)
peptide: SPALHIGSV
B63: YPGLRGSPM (peptide)
peptide: YPGLRGSPM
B64: SPAMTTPSL (peptide)
peptide: SPAMTTPSL
B65: RPRALRDLRIL (peptide)
peptide: RPRALRDLRIL
B66: RPRSPAGQVAA (peptide)
peptide: RPRSPAGQVAA
B67: APSTPRITTF (peptide)
peptide: APSTPRITTF

target: T1, HLA-A*03:01 (human); assay: UV-exchange b2m ELISA; exchange-yield grade
T1 construct: also called peptide-receptive MHC molecules
From the text: (§1) Candidate peptides for T cell based therapies according to the present invention were further tested for their MHC binding capacity (affinity). The individual peptide-MHC complexes were produced by UV-ligand exchange, where a UV-sensitive peptide is cleaved upon UV-irradiation, and exchanged with the peptide of interest as analyzed. Only peptide candidates that can effectively bind and stabilize the peptide-receptive MHC molecules prevent dissociation of the MHC complexes. To determine the yield of the exchange reaction, an ELISA was performed based on the detection of the light chain (β2m) of stabilized MHC complexes. The assay was performed as generally described in Rodenko et al. (Rodenko et al., 2006).
(§2) 96 well MAXISorp plates (NUNC) were coated over night with 2 ug/ml streptavidin in PBS at room temperature, washed 4× and blocked for 1 h at 37° C. in 2% BSA containing blocking buffer. Refolded HLA-A*02:01/MLA-001 monomers served as standards, covering the range of 15-500 ng/ml. Peptide-MHC monomers of the UV-exchange reaction were diluted 100-fold in blocking buffer. Samples were incubated for 1 h at 37° C., washed four times, incubated with 2 ug/ml HRP conjugated anti-β2m for 1 h at 37° C., washed again and detected with TMB solution that is stopped with […]. Absorption was measured at 450 nm. Candidate peptides that show a high exchange yield (preferably higher than 50%, most preferred higher than 75%) are generally preferred for a generation and production of antibodies or fragments thereof, and/or T cell receptors or fragments thereof, as they show sufficient avidity to the MHC molecules and prevent dissociation of the MHC complexes.

B1 and B2 fall in the same range of peptide exchange yield: 50 to 75% for the first, 50 to 75% for the second.

B3 and B4 fall in the same range of peptide exchange yield: 20 to 50% for the first, 20 to 50% for the second.

Compared with B5, B6 is higher in peptide exchange yield: 20 to 50% for the first, 50 to 75% for the second.

B7 and B8 fall in the same range of peptide exchange yield: 20 to 50% for the first, 20 to 50% for the second.

B9 and B10 fall in the same range of peptide exchange yield: 50 to 75% for the first, 50 to 75% for the second.

First: B11
Second: B12
The peptide exchange yield of the first is lower: 10 to 20% for the first, 20 to 50% for the second.

B13 and B14 fall in the same range of peptide exchange yield: 20 to 50% for the first, 20 to 50% for the second.

First: B15
Second: B16
The peptide exchange yield of the first is higher: 50 to 75% for the first, 20 to 50% for the second.

First: B17
Second: B18
The peptide exchange yield of the first is higher: 50 to 75% for the first, 20 to 50% for the second.

B19 and B20 fall in the same range of peptide exchange yield: 20 to 50% for the first, 20 to 50% for the second.

First: B21
Second: B22
The peptide exchange yield of the first is lower: 20 to 50% for the first, 50 to 75% for the second.

B23 and B24 fall in the same range of peptide exchange yield: 20 to 50% for the first, 20 to 50% for the second.

target: T2, HLA-B*07:02 (human); assay: UV-exchange b2m ELISA; exchange-yield grade
T2 construct: also called peptide-receptive MHC molecules
From the text: as §1, §2

B25 and B26 fall in the same range of peptide exchange yield: 50 to 75% for the first, 50 to 75% for the second.

B27 and B28 fall in the same range of peptide exchange yield: 20 to 50% for the first, 20 to 50% for the second.

B29 and B30 fall in the same range of peptide exchange yield: 20 to 50% for the first, 20 to 50% for the second.

First: B31
Second: B32
The peptide exchange yield of the first is lower: 20 to 50% for the first, 50 to 75% for the second.

B33 and B34 fall in the same range of peptide exchange yield: 50 to 75% for the first, 50 to 75% for the second.

First: B35
Second: B36
The peptide exchange yield of the first is higher: 50 to 75% for the first, 20 to 50% for the second.

First: B37
Second: B38
The peptide exchange yield of the first is lower: 10 to 20% for the first, 50 to 75% for the second.

B39 and B40 fall in the same range of peptide exchange yield: 50 to 75% for the first, 50 to 75% for the second.

First: B41
Second: B42
The peptide exchange yield of the first is higher: 50 to 75% for the first, 20 to 50% for the second.

B43 and B44 fall in the same range of peptide exchange yield: 50 to 75% for the first, 50 to 75% for the second.

B45 and B46 fall in the same range of peptide exchange yield: 20 to 50% for the first, 20 to 50% for the second.

First: B47
Second: B48
The peptide exchange yield of the first is lower: 20 to 50% for the first, 50 to 75% for the second.

Compared with B49, B50 is lower in peptide exchange yield: 50 to 75% for the first, 20 to 50% for the second.

First: B51
Second: B52
The peptide exchange yield of the first is higher: 50 to 75% for the first, 20 to 50% for the second.

B53 and B54 fall in the same range of peptide exchange yield: 50 to 75% for the first, 50 to 75% for the second.

B55 and B56 fall in the same range of peptide exchange yield: 50 to 75% for the first, 50 to 75% for the second.

B57 and B58 fall in the same range of peptide exchange yield: 50 to 75% for the first, 50 to 75% for the second.

B59 and B60 fall in the same range of peptide exchange yield: 50 to 75% for the first, 50 to 75% for the second.

First: B61
Second: B62
The peptide exchange yield of the first is lower: 20 to 50% for the first, 50 to 75% for the second.

B63 and B64 fall in the same range of peptide exchange yield: 50 to 75% for the first, 50 to 75% for the second.

B65 and B66 fall in the same range of peptide exchange yield: 50 to 75% for the first, 50 to 75% for the second.

In the case of B67, the peptide exchange yield is reported as 50 to 75%.
